This is an account of results in patent US20100210517A1 (RAPTOR PHARMACEUTICAL, published 2010).

Numbering of substitutions follows the chain as printed. Names may count otherwise.

For one assay, the target named is T1, MAT CR12 (human, UniProt Q9Y5Y6 452-524).
T1 construct: also called ST14 CR12; matriptase CR12
T1 sequence: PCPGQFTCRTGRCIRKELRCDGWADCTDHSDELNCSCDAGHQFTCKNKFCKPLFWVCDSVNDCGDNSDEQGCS
As to the kind of experiment: binding of truncated MatRAP1 forms to MAT CR12, relative signal under isomolar conditions. The protocol:
(§1) Solid phase binding assays-Purified, refolded CR protein (1 μg) was bound to Nunc Maxisorp™ 96-well plates in TBS pH 8 supplemented with 5 mM CaCl₂ (TBSC) overnight at 4° C. Wells were washed with TBSC and then blocked with TBSC containing 2% bovine serum albumin (BSA). […] Control wells contained no added ligand. As an additional control, to determine whether the absence of calcium affected binding, 10 mM EGTA was included in the incubation medium for some samples. […] Excess primary antibody was removed and wells washed before incubation with the secondary antibody, HRP-conjugated goat anti rabbit IgG (Bio-Rad). After washing, TMB substrate solutions (Bio-Rad) were added to detect HRP. Color development was stopped with 1N HCl. Absorption at 450 nm was measured with a microplate spectrophotometer (Molecular Devices). Data were plotted and Kd values derived by non-linear regression with the assumption of single-site binding (GraphPad Prism).

The target in assay [1] is T2, LRP1 CR3-5 (human).
T2 construct: range 852-973; also called L1 CR3-5
T2 sequence (Q07954 852-973): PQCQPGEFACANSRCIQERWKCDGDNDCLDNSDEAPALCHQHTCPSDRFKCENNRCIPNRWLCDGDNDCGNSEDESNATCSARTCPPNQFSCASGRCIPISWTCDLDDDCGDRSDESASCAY
As to the kind of experiment: solid-phase assay on coated CR protein, single-site non-linear fit. The protocol: (§2) Data were plotted and fitted by non-linear regression with the assumption of a single binding site (GraphPad Prism). Kd values with standard deviations were derived from the regression analysis.
as §1

Assay [2] concerns the target T3, LRP2 CR89 (human, UniProt P98164 1025-1102).
T3 construct: domain: CR89; also called YVWR; L2 CR89; not shown: N-terminal hexahistidine and S-peptide tags of pET30(+)a
Described as above. The procedure:
as §2, §1

Assay [3] concerns the target T2, LRP1 CR3-5. The assay can be described thus: solid-phase assay; OD at the highest ligand concentration as percent of the highest OD of all ligands. The protocol:
as §1

Assay [4] has as its target T3, LRP2 CR89. Described as above. The protocol: as §1
Assay [5] deals with T2, LRP1 CR3-5. As to the kind of experiment: solid-phase binding assay, CR protein coated on plate, anti-RAP detection.
Assay [6] has as its target T3, LRP2 CR89. The assay is described as above.
Assay [7] addresses T3, LRP2 CR89. As to the kind of experiment: solid-phase assay on coated CR protein, anti-RAP detection, A450. The procedure:
as §2, §1

The target of the next assay is T4, MAT CR23 (human).
T4 construct: range 487-566; also called ST14 CR23; matriptase CR23
T4 sequence (Q9Y5Y6 487-566): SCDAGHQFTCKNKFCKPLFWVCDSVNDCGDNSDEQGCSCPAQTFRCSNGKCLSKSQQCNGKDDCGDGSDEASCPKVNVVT
As to the kind of experiment: solid-phase binding assay; target not given, MAT CR23 is the pair MatRAP1 was selected on. The procedure:
as §1

T3 sequence (P98164 1025-1102): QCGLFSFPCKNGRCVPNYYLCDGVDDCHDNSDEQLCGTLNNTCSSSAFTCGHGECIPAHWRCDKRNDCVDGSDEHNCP

B1: MatRAP1 truncated by 10 amino acids at the N-terminus (ligand)
chain: GYSTEAEFEEPRVIDLWDLAQSANLTDKELEAFREELKHFGAKIERHNHYQKQLEIAHEWLRHAESVGDGERVSRSREKHALLEGRTKELGYTVKKHLQDLSGRISRAR
notes: Range derived: d3 starts at 201 and 10 residues were removed; also called MatRAP1 N-10; not shown: N-terminal hexahistidine and S-peptide tags of pET30(+)a
Turning to B1, in the assay with MAT CR12, the “fnctn (relative binding signal under isomolar conditions)” value came to 0.1.

B2: MatRAP1 truncated by 31 amino acids at the N-terminus (ligand)
chain: SANLTDKELEAFREELKHFGAKIERHNHYQKQLEIAHEWLRHAESVGDGERVSRSREKHALLEGRTKELGYTVKKHLQDLSGRISRAR
notes: Range derived from the number of residues removed; also called MatRAP1 N-31; not shown: N-terminal hexahistidine and S-peptide tags of pET30(+)a
In the case of B2, the “fnctn (relative binding signal under isomolar conditions)” value with MAT CR12 was found to be 0.35.

B3: MegaRAP1 d3 double revertant A256K, E270K (ligand)
chain: LDRLRRVSHQGYTTEAKFEEPRVIDLWDLAQSANLTDKELEAFREELKYFKAKIEKHNHYQKQLEIAHEKLRHAESVGDGERVSRSREKHALLEGRTKELGYTVKKHLQDLSGRISRAR
notes: not shown: N-terminal hexahistidine and S-peptide tags of pET30(+)a
With B3, the results for the Kd in the assay with LRP1 CR3-5 [1] and in the assay with LRP2 CR89 [2] were 4 nM and 72 nM, respectively. The results for the “% max” value in the assay with LRP1 CR3-5 [3] and with LRP2 CR89 [4] were 93% and 73%, respectively. Further, the “fold improvement in affinity against the E270K single-site revertant” value with LRP1 CR3-5 [5] was roughly 30 fold. Besides, in the assay with LRP2 CR89 [6], the “fold loss of affinity against the E270K revertant” value was determined as 2 fold.

B4: RAP d3 forward mutant H249Y (ligand)
chain: B3 chain with T13S, K17E, K51E
notes: The paragraph gives only the position; the change H249Y follows from the mutagenic primers; also called single-site RAP d3 mutant at 249; not shown: N-terminal hexahistidine and S-peptide tags of pET30(+)a
For B4, the binding result in the assay with LRP2 CR89 [7] was “no binding (tested: 100 nM)”. Besides, the Kd with LRP1 CR3-5 [1] is 28 nM. Moreover, the figures for the “% max” value with LRP1 CR3-5 [3] and in the assay with LRP2 CR89 [4] were 90% and 2%, respectively.

B5: RAP d3 forward mutant E217K (ligand)
chain: B3 chain with T13S, Y49H, K51E
notes: The paragraph gives only the position; the change E217K follows from the mutagenic primers and the MegaRAP1 mutation set; also called single-site RAP d3 mutant at 217; not shown: N-terminal hexahistidine and S-peptide tags of pET30(+)a
As to B5, the binding result in the assay with LRP2 CR89 [7] is “no binding (tested: 100 nM)”. In the assay with LRP1 CR3-5 [1], this molecule returned a Kd of 9 nM. The “% max” value in the assay with LRP1 CR3-5 [3] is 91%; in the assay with LRP2 CR89 [4], 5%.

B6: MegaRAP1 d3 revertant K217E (ligand)
chain: B3 chain with K17E, K56A, K70E
notes: MegaRAP1 d3 with position 217 reverted to wild type; not shown: N-terminal hexahistidine and S-peptide tags of pET30(+)a
The molecule B6 returned a Kd with LRP2 CR89 [2] of 25 nM. For the same molecule, the results for the “% max” value with LRP1 CR3-5 [3] and in the assay with LRP2 CR89 [4] were 2% and 88%, respectively.

B7: MegaRAP1 d3 revertant A256K (ligand)
chain: B3 chain with K70E
notes: as for B3
Consider B7, for which, in the assay with LRP2 CR89 [7], the binding result is reported as “no binding (tested: 100 nM)”. Also, the “% max” value in the assay with LRP1 CR3-5 [3] amounted to 6%; in the assay with LRP2 CR89 [4], 2%.

B8: MegaRAP1 d3 revertant K251E (ligand)
chain: B3 chain with K51E, K56A, K70E
notes: as for B3
With B8, in the assay with LRP2 CR89 [7], the binding result is given as “no binding (tested: 100 nM)”. Further, the results for the “% max” value with LRP1 CR3-5 [3] and with LRP2 CR89 [4] were 2% and 11%, respectively.

B9: RAP d3 forward mutant E251K (ligand)
chain: B3 chain with T13S, K17E, Y49H
notes: The paragraph gives only the position; the change E251K follows from the mutagenic primers; not shown: N-terminal hexahistidine and S-peptide tags of pET30(+)a
For the molecule B9, in the assay with LRP2 CR89 [7], the binding result is reported as “no binding (tested: 100 nM)”. The dissociation constant (Kd) with LRP1 CR3-5 [1] was 7 nM. Further, the entries for the “% max” value in the assay with LRP1 CR3-5 [3] and with LRP2 CR89 [4] were 100% and 5%, respectively.

B10: RAP d3 forward mutant K270E (ligand)
chain: B3 chain with T13S, K17E, Y49H, K51E, K70E
notes: also called K270E alone; not shown: N-terminal hexahistidine and S-peptide tags of pET30(+)a
Regarding B10, in the assay with LRP2 CR89 [7], the binding result is “no binding (tested: 100 nM)”. Besides, the “% max” value is 4% with LRP1 CR3-5 [3] and 2% in the assay with LRP2 CR89 [4].

B11: RAP d3 forward mutant K256A, K270E (ligand)
chain: B3 chain with T13S, K17E, Y49H, K51E, K56A, K70E
notes: also called K270E in combination with K256A; not shown: N-terminal hexahistidine and S-peptide tags of pET30(+)a
Regarding B11, in the assay with LRP2 CR89 [7], the binding result was “no binding (tested: 100 nM)”. The figures for the “% max” value with LRP1 CR3-5 [3] and with LRP2 CR89 [4] were 2% and 3%, respectively.

B12: MegaRAP1 d3 revertant Y249H (ligand)
chain: B3 chain with Y49H, K56A, K70E
notes: MegaRAP1 d3 with position 249 reverted to wild type; not shown: N-terminal hexahistidine and S-peptide tags of pET30(+)a
With B12, the results for the “% max” value in the assay with LRP1 CR3-5 [3] and with LRP2 CR89 [4] were 2% and 35%, respectively.

B13: RAP d3 forward mutant E251K, K256A, K270E (ligand)
chain: B3 chain with T13S, K17E, Y49H, K56A, K70E
notes: also called triple mutant; not shown: N-terminal hexahistidine and S-peptide tags of pET30(+)a
As for B13, the Kd with LRP2 CR89 [2] stood at 114 nM. Moreover, the “% max” value with LRP1 CR3-5 [3] is 2%; in the assay with LRP2 CR89 [4], 40%.

B14: MegaRAP1 d3 revertant T213S (ligand)
chain: B3 chain with T13S, K56A, K70E
notes: MegaRAP1 d3 with position 213 reverted to wild type; not shown: N-terminal hexahistidine and S-peptide tags of pET30(+)a
Consider B14, for which the affinity with LRP2 CR89 [2], expressed as Kd, was 19 nM. For the same molecule, the “% max” value turned out to be 2% with LRP1 CR3-5 [3] and 94% in the assay with LRP2 CR89 [4].

B15: MegaRAP1 d3 double revertant K251E, E270K (ligand)
chain: B3 chain with K51E, K56A
notes: as for B3
In the case of B15, the Kd in the assay with LRP2 CR89 [2] came to 153 nM. Besides, the “% max” value in the assay with LRP1 CR3-5 [3] and with LRP2 CR89 [4] was 16% in each case. The “fold difference in affinity against the single-site E270K revertant” value with LRP2 CR89 [6] is roughly 20 fold.

B16: MegaRAP1 d3 revertant E270K (ligand)
chain: B3 chain with K56A
notes: MegaRAP1 d3 with position 270 reverted to wild type; also called MegaRAP1 d3 E270K; E270K revertant; not shown: N-terminal hexahistidine and S-peptide tags of pET30(+)a
In the case of B16, the figures for the Kd with LRP1 CR3-5 [1], with LRP2 CR89 [2] and with LRP1 CR3-5 [5] were 114 nM, 8 nM and 142 nM, respectively. The “% max” value with LRP2 CR89 [4] stood at 100%.

B17: RAP d3 forward mutant E251K, K270E (ligand)
chain: B3 chain with T13S, K17E, Y49H, K70E
notes: also called K270E in combination with E251K; not shown: N-terminal hexahistidine and S-peptide tags of pET30(+)a
Take B17: the binding result with LRP2 CR89 [7] is on record as “no binding (tested: 100 nM)”. Besides, the entries for the “% max” value with LRP1 CR3-5 [3] and with LRP2 CR89 [4] were 4% and 2%, respectively.

B18: MatRAP1 truncated by 52 amino acids at the N-terminus (ligand)
chain: KIERHNHYQKQLEIAHEWLRHAESVGDGERVSRSREKHALLEGRTKELGYTVKKHLQDLSGRISRAR
notes: Range derived from the number of residues removed (52 total); also called MatRAP1 N-52; not shown: N-terminal hexahistidine and S-peptide tags of pET30(+)a
In the case of B18, the binding result in the assay with MAT CR12 is recorded as “no binding”.

B19: MatRAP1 N-42 without the C-terminal linker and affinity tag (ligand)
chain: FREELKHFGAKIERHNHYQKQLEIAHEWLRHAESVGDGERVSRSREKHALLEGRTKELGYTVKKHLQDLSGRISRAR
notes: Range derived; not shown: N-terminal hexahistidine and S-peptide tags of pET30(+)a
For B19, the “fold increase in affinity over MatRAP1 N-42” value in the assay with MAT CR23 was determined as 2 fold.

B20: MatRAP1 truncated variant, amino acids 243-313 (71 amino acids) (ligand)
chain: FREELKHFGAKIERHNHYQKQLEIAHEWLRHAESVGDGERVSRSREKHALLEGRTKELGYTVKKHLQDLSG
notes: also called best truncated variant; not shown: N-terminal hexahistidine and S-peptide tags of pET30(+)a
B20: in the assay with MAT CR23, the “fold increase in affinity over MatRAP1 N-42” value stood at 4 fold and the “fold increase in affinity over the full-length d3 variant” value amounted to 12 fold. The “fnctn (relative binding signal under isomolar conditions)” value in the assay with MAT CR12 was found to be 2.7.
